Measurements reported in a protein production outcome set (Wang et al. 2014).

Assay: label from the status in PepcDB records

Sequence	protein production
MDELFAKAPIKKVYFKLALPVVLGMITTMIYNLADTMFVAKTSDTNLVAGITIGAPLFTFLIAVSDIFGLGGSSLISRLFGERNYQLSKRVSSFCMIGGFVTGLILTAILLIFENPILHLLGAKAATYQDAADFYRIISIGAAPIVFSIIPQNLIRTEGLATQAMIATMTGTILAIILDPIFLFVFKMGAIGVGIANITGYLVTDIILIYYVLCKTEYIKLKLKYTKISGKTIKDIVAIGIPGSITNFAQSFGMALLNSSLALYGANKVAAMGITQKIYSIVILVIVGFAFGSQPLIGYNYGAKNWKRLKKILNFDILVQVVYAVVSGGLLILFARPVTALFMNQPDIVNAGSYMLIATIITTPIVGIILVYTTVFQSVGNAWAAFIMAIARQGVVYFIALETLKNIFGYHGIVWAQAVSDVITCIIGYFIYEKSLDLKDKIKN	failed
MDERRAVVLVDELHLRKGGYEAEKVRVFAVRVSETLWAFKALWGSTPFTGTTFV	failed
MDEYAGRVLADRYRLPLPPSDEYELAETRAFDTYSGQEVLVRQVPLPEVVEAEVLDADGLPAGFVARDGGTRRASARTATRRPAEPAVRRAIEAAQAAAQIPDHPRLDQVFDVFAEGGSLWIVSELVAARPLAALLADKPLSPYRAAEVASDVLMALRVLHAHGWVHRNITVRTVLVCDDGRVMLTGLAAGAAEEALCGYDPVPVRDFEPRGDDGGDGTGGNGRGAVRGAAAGGTPGIGSGPGAGSGRPGIGAGSGGPVGAAGGAVGAAAGGMSVAEAEAARRAAIEARAGGVGPVAGTPGGEVPARGARALEGGGDARAQRAGAIAAYRAGARAAARVQEAQRGGRAALPAPRPADAEGRAPQSPGHGVEHLPGALPGQIADPYGVARTNSWPGGFPGDVGGANVGGAYGTPGNGSGTYENGSVPHAPADAPVSTPTPADAVPPTHWDHLVSGSSAPSGPSAASVPRRGPTTALAAERARQARMAVIGPVTERWAPEQAGPVHENWQLAAPIGPATDLWALGALLFRAVQGHAPYPEENTAELVQLVCAEPPAFAEECGPLRPVVESLLRQDPTERLDFEEVRGWLRSLVRSAPEPEAGAHVVAAPPVDPRRLPIVRRRGELVRRRRARLPATTPHARHKRAKDGRPPRPKRLGRNLVLLILLVLAAAVAYAMVFMPKASPNSDSGSRSDGDRTGAAGGVSPAPEQSGGGSEPRPDQTSPGSGKSPSGSSGSTREQTTDPDVAQGFTLRKDPEGFRVAVATGWDRAPKNGRGRIVYSHGDFELIVVPGRDSTADHGSDPLTYQRETESELQPFRDSTWATSSGMRRIDVGGRTMAEGQFTWTDGQGRELFVRNLAIVVGGRYHVVQLRGPEAERDEVTRLYEQASRTYQVTG	failed
MDFAFEKVARDWFVRWSKGRSEKYAGQVMRNFERWVFPAIGNLDIRQVRTADVVGCLRVMEARGIVDTLRKTKNSLKMVFAFAVGSGMMEINPVAQIGSGVFERLEHHHHHH	failed
MDFGLATTLYPDEYNYQTDAYSPTSSPVDLVQVIQQLHASLDPRTVFACYGKVLGQHLPIQGVRLQSEQHKLSWGKRYGISLKRQIICGGTPLTLQYQLLTPLTPSQSICLQEIEPLLLQPLLNAMQYQEMSMQAMFDALTGLGNRHYYSQSLKNAVARAQRKQGSVSLIVLDLDNFKKLNDKYGHKCGDYILKEFGDIIRSSIRSTDQAFRIGGDEFVVIVQGNIHAAGLLCERIVSATNTHASFHQFGVSCSLGAAEASETMEAEQLYEQADKTLYQAKASGRNCYKLSPTQLS	failed
MDFGTQGPQAPAELAWLRGVDAYTMGAYPQAEEEFRAAVRIDPTMADGWLGLHALRVDTTNALLRMFRNRDRFGEQRARHRRTLNSWYWLGWWVQPVLENPRDLLLAHASHWLDGRHVPELDRALAGLPPVDSDAQVRFLHACRAYLVKDWEQLVRHTDPLLGDPLLGIEAGLFSGMARVRLEMYGQAEPLLSAALMRCRSEQPQRKELRYWLARAHEGTGRSAAALPLYRAVHRVDPAFMDTSARLAAIAEGDGYDDPADLTGYAQAGAGTDGLDGLDPLFGTEERGVKVSAPEPALSAPLPPLGGPSVREKAGGPDPSLPSGPTDPALLEEALAELERMVGLEPVKRQVKALSAQLNMARLRAGQGLPVQPPKRHFVFSGPSGTGKTTVARILGRVFYALGLLGGDHLVEAQRADLVGEYLGQTAVKANELIDSALGGVLFVDEAYSLSNSGYGKGDAYGDEALQVLLKRAEDNRDHLVVILAGYPEGMDRLLGANPGLSSRFTTRVDFPSYRPLELTSIGEVLAAENGDVWDEEALDELRSIAGHVVDQGWIDELGNGRFLRTLYEKSCAYRDLRLSVYPGALTRDDLATLRLPDLMQAYGEVLSGRGPGGPSAG	failed
MDFHIRKATNSDAEAIQHVATTSWHHTYQDLIPSDVQDDFLKRFYNVETLHNRISATPFAVLEQADKVIGFANFIELEKGKSELAAFYLLPEVTQRGLGTELLEVGMTLFHVPLPMFVNVEKGNETAIHFYKAKGFVQVEEFTEDFYGYPLETIRFNLNH	not failed
MDFKQRHTWLKIASCKSISAKKRASIWQKLTEFDQYEMTTQTFAESFFPVDKLAQILMELETAEACFFDDVTLIWILDDAYPALLREIYEAPPILFCKGNIDLLQQQAIAIVGTRQMSEYGRKACMKIASELAENKLTIVSGMAIGIDSTAHRATLNKQGATIAVLGSGVNKVYPKKNELLAKEIVKEGLLLSEYLPDEEAKRWHFPERNRIISGLAIGTVIIEAAERSGSLITADIALEQNRQVFAVPGNIFIDTWQGTNYLIQEGAKLVMNSNNIIEEFIQIKP	failed
MDFLARATAIVGNTMVLMRRFGSPGTQAIGQSPAIPEAQKQGIMTLKMPAAKGWAPGHLPTPAPGLKVNAFARDLEHPRWIEVLPSGDVLVAEARQLPTPPKTLLDRAAQATMRRIRALGDSPNRITLLRDPDGRGEAQERETFLENQSQPFGMALVGDTFYVGNTDGIMAFPYRPGATRLEGPGRRLTTFKPGGHWTRSLIVSPDGRRIYAGVGSLSNIGDDGMEAEEGRAAIWELDLASGQARIYASGLRNPVGLAWEPTTRVLWTVVNERDGLGDETPPDYLTSVEEDGFYGWPYCYWNRIVDDRVPQDPAMVARAITPDYALGGHTASLGLCWVPAGTLPGFGDGMAIGQHGSWNRSKLSGYRLIFVPFANGRPSGPPRDILTGFLSDDEKLAYGRPVGVAVGPDRRSLLLADDVGDVIWRVTGALEHHHHHH	failed
MDFPTISRSPSGPPAMDLEGPRDILVPSEDLTPDSQWDPMPGGPGSLSRMELDESSLQELVQQFEALPGDLVGPSPGGAPCPLHIATGHGLASQEIADAHGLLSAEAGRDDLLGLLHCEECPPSQTGPEEPLEPAPRLLQPPEDPDEDSDSPEWVEGASAEQEGSRSSSSSPEPWLETVPLVTPEEPPAGAQSPETLASYPAPQEVPGPCDHEDLLDGVIFGARYLGSTQLVSERNPPTSTRMAQAREAMDRVKAPDGETQPMTEVDLFVSTKRIKVLTADSQEAMMDHALHTISYTADIGCVLVLMARRRLARRPAPQDHGRRLYKMLCHVFYAEDAQLIAQAIGQAFAAAYSQFLRESGIDPSQVGVHPSPGACHLHNGDLDHFSNSDNCREVHLEKRRGEGLGVALVESGWGSLLPTAVIANLLHGGPAERSGALSIGDRLTAINGTSLVGLPLAACQAAVRETKSQTSVTLSIVHCPPVTTAIIHRPHAREQLGFCVEDGIICSLLRGGIAERGGIRVGHRIIEINGQSVVATPHARIIELLTEAYGEVHIKTMPAATYRLLTGQEQPVYL	not failed
MDFQHRPGGKTGSGGVASSSESNRDRRERLRQLALETIDINKDPYFMKNHLGSYECKLCLTLHNNEGSYLAHTQGKKHQTNLARRAAKEAKEAPAQPAPEKVKVEVKKFVKIGRPGYKVTKQRDSEMGQQSLLFQIDYPEIAEGIMPRHRFMSAYEQRIEPPDRRWQYLLMAAEPYETIAFKVPSREIDKAEGKFWTHWNRETKQFFLQFHFKMEKPPAPPSLPAGPPGVKRPPPPLMNGLPPRPPLPESLPPPPPGGLPLPPMPPTGPAPSGPPGPPQLPPPAPGVHPPAPVVHPPASGVHPPAPGVHPPAPGVHPPAPGVHPPTSGVHPPAPGVHPPAPGVHPPAPGVHPPAPGVHPPAPGVHPPPSAGVHPQAPGVHPAAPAVHPQAPGVHPPAPGMHPQAPGVHPQPPGVHPSAPGVHPQPPGVHPSNPGVHPPTPMPPMLRPPLPSEGPGNIPPPPPTN	failed
MDFSKAFGLVYKALDYRSLRQDMIASNIANVDTPFYRPKDLDFESVLAKKKAEIFENQSSKVLPLAHTNPRHLDFENSAKDGASLFFRDGHLAKNDGNSVDLDIETSEMGKNSTMYLALSSALKKYRGVINYAIDSSKNL	failed
MDFSQLGGLLDGMKKEFSQLEEKNKDTIHTSKSGGGMVSVSFNGLGELVDLQIDDSLLEDKEAMQIYLMSALNDGYKAVEENRKNLAFNMLGNFAKL	not failed
MDFVPKILGNVVLLLSAGLNWTAMRVFAGRRPHVPGLLAGAGIWLILCVVPAFYQSMPVRVSVYSLLAAAYGVLTLLEFWRSRQQLEVAYMPAVVLTLLHTMYYIVRAVVDQGVAMDQALKGYGAGVPLFSFMLFESMLYVIGIAYVTLCMVKERVELRFKAAAFCDALTGIGNRRAFMVNGERMLIECQRRCSPMALLLCDLDHFKRLDDAYGHQTGDQVLVAFSQVLAETLGTKDVYARIGGEEFACLLAATDEQAAVTVAERVRQAFARLPLLEPGLLSVSIGVVSSETRGYDLPRLLSLADEALYDAKHQGRNRVHTVSRSALELQPD	failed
MDFVPSLPTLIAFTIAILLLAVTPGPDMTLWISRSLREGRAAGFMTLVGTNIGITVHTMLVAFGVAALIVASPTAFMILKTGGAAYLVWLAIQAIRKGSDFVMVKSTGEKAQASLKSALLNGIWVNLLNPKVIIFFMTFLPQFVSATDPHVTGKLIFLGIWSIIVALPIGIGIVVTADILSAWLQRNRKVLRGLDYTIAGVFSLFAVKIFFTQTR	failed
MDFYQFAEYIVLNYGYFGIFLIAFTEAVIQPILPDIFIIGASAFGLDSVTCALVASFGSLTGGYTGYFLGKKLGTNVFLKIFKEKYFIKGKAFFEKFGVWGVAIAGFTPIPYKVFAWLAGIFKMNLVSFGAGTLLGRIPRFLLVAYFGYSLGLLFGLHTP	failed
MDGDFRTSFVREPAGLRPYPALVLNADYRPLSYYPLSLWPWQEAIKAAFLDRVSIVAEYDQVVRSQRAALRIPSVVVLKEFVSPQKRVAFTRFNLFLRDEFRCQYCGAKGDLTFDHVVPRARGGVTSWQNVVAACSPCNLHKGSKTLKQAGMRLARIPREPTPAEMQRHGQRFPPNHLHDSWLDYLYWDAELEALEHHHHHH	failed
MDGHNQNQYQNQNQIQQSQQPPLKKYVTQRRSVDVSSPYINLYYNRRHGLPNLVVEPETSYTIDIMPPNAYRGRDRVINLPSKFTHLSSNKVKHVIPAIQWTPEGRRLVVATYSGEFSLWNASSFTFETLMQAHDSAVTTMKYSHDSDWMISGDADGMIKIWQPNFSMVKEIDAAHTESIRDMAFSSNDSKFVTCSDDNILKIWNFSNGKQERVLSGHHWDVKSCDWHPEMGLIASASKDNLVKLWDPRSGNCISSILKFKHTVLKTRFQPTKGNLLMAISKDKSCRVFDIRYSMKELMCVRDETDYMTLEWHPINESMFTLACYDGSLKHFDLLQNLNEPILTIPYAHDKCITSLSYNPVGHIFATAAKDRTIRFWTRARPIDPNAYDDPTYNNKKINGWFFGINNDINAVREKSEFGAAPPPPATLEPHALPNMNGFINKKPRQEIPGIDSNIKSSTLPGLSI	failed
MDGSNVTSFVVEEPTNISTGRNASVGNAHRQIPIVHWVIMSISPVGFVENGILLWFLCFRMRRNPFTVYITHLSIADISLLFCIFILSIDYALDYELSSGHYYTIVTLSVTFLFGYNTGLYLLTAISVERCLSVLYPIWYRCHRPKYQSALVCALLWALSCLVTTMEYVMCIDREEESHSRNDCRAVIIFIAILSFLVFTPLMLVSSTILVVKIRKNTWASHSSKLYIVIMVTIIIFLIFAMPMRLLYLLYYEYWSTFGNLHHISLLFSTINSSANPFIYFFVGSSKKKRFKESLKVVLTRAFKDEMQPRRQKDNCNTVTVETVV	failed
